First the molecules themselves.
B1: Protein unc-13 homolog D (Homo sapiens), Q70J99 (parent)
chain: MATLLSHPQQRPPFLRQAIKIRRRRVRDLQDPPPQMAPEIQPPSHHFSPEQRALLYEDALYTVLHRLGHPEPNHVTEASELLRYLQEAFHVEPEEHQQTLQRVRELEKPIFCLKATVKQAKGILGKDVSGFSDPYCLLGIEQGVGVPGGSPGSRHRQKAVVRHTIPEEETHRTQVITQTLNPVWDETFILEFEDITNASFHLDMWDLDTVESVRQKLGELTDLHGLRRIFKEARKDKGQDDFLGNVVLRLQDLRCREDQWYPLEPRTETYPDRGQCHLQFQLIHKRRATSASRSQPSYTVHLHLLQQLVSHEVTQHEAGSTSWDGSLSPQAATVLFLHATQKDLSDFHQSMAQWLAYSRLYQSLEFPSSCLLHPITSIEYQWIQGRLKAEQQEELAASFSSLLTYGLSLIRRFRSVFPLSVSDSPARLQSLLRVLVQMCKMKAFGELCPNTAPLPQLVTEALQTGTTEWFHLKQQHHQPMVQGIPEAGKALLGLVQDVIGDLHQCQRTWDKIFHNTLKIHLFSMAFRELQWLVAKRVQDHTTVVGDVVSPEMGESLFQLYISLKELCQLRMSSSERDGVLALDNFHRWFQPAIPSWLQKTYNEALARVQRAVQMDELVPLGELTKHSTSAVDLSTCFAQISHTARQLDWPDPEEAFMITVKFVEDTCRLALVYCSLIKARARELSSGQKDQGQAANMLCVVVNDMEQLRLVIGKLPAQLAWEALEQRVGAVLEQGQLQNTLHAQLQSALAGLGHEIRTGVRTLAEQLEVGIAKHIQKLVGVRESVLPEDAILPLMKFLEVELCYMNTNLVQENFSSLLTLLWTHTLTVLVEAAASQRSSSLASNRLKIALQNLEICFHAEGCGLPPKALHTATFQALQRDLELQAASSRELIRKYFCSRIQQQAETTSEELGAVTVKASYRASEQKLRVELLSASSLLPLDSNGSSDPFVQLTLEPRHEFPELAARETQKHKKDLHPLFDETFEFLVPAEPCRKAGACLLLTVLDYDTLGADDLEGEAFLPLREVPGLSGSEEPGEVPQTRLPLTYPAPNGDPILQLLEGRKGDREAQVFVRLRRHRAKQASQHALRPAP
B2: Ras-related protein Rab-27A (Homo sapiens), P51159 (parent)
chain: MSDGDYDYLIKFLALGDSGVGKTSVLYQYTDGKFNSKFITTVGIDFREKRVVYRASGPDGATGRGQRIHLQLWDTAGQERFRSLTTAFFRDAMGFLLLFDLTNEQSFLNVRNWISQLQMHAYCENPDIVLCGNKSDLEDQRVVKEEEAIALAEKYGIPYFETSAANGTNISQAIEMLLDLIMKRMERCVDKSWIPEGVVRSNGHASTDQLSEEKEKGACGC
partner: B1 chain

The variants in the first test derive from B1. To be noted: with rb27a_human RAB27A.
Regarding L403P, the “effect of a mutation on the interaction” value was “disrupting interaction strength”.

Variants of B2 are the subject of a further test. To be noted: with un13d_human UNC13D.
Take Q78L: the “effect of a mutation on the interaction” value is given as “with no effect”.

Take A87P: the “effect of a mutation on the interaction” value is recorded as “disrupting interaction strength”.

As for T23N, the “effect of a mutation on the interaction” value is listed as “disrupting interaction strength”.
